From patent US20180318419A1 (YALE UNIVERSITY, published 2018)
Changes are numbered by the printed parent chain. Names and notes keep the numbering of the source.

Assays:
[1] = target: T1, human myelin-associated glycoprotein (MAG) (human, UniProt P20916 20-626); experiment: genome-scale human receptor array; transfected HEK293T cells, anti-Fc FMAT blue secondary antibody
T1 construct: Expressed on transfected HEK293T cells from the human membrane gene library; also called Siglec 4; human MAG
T1 sequence: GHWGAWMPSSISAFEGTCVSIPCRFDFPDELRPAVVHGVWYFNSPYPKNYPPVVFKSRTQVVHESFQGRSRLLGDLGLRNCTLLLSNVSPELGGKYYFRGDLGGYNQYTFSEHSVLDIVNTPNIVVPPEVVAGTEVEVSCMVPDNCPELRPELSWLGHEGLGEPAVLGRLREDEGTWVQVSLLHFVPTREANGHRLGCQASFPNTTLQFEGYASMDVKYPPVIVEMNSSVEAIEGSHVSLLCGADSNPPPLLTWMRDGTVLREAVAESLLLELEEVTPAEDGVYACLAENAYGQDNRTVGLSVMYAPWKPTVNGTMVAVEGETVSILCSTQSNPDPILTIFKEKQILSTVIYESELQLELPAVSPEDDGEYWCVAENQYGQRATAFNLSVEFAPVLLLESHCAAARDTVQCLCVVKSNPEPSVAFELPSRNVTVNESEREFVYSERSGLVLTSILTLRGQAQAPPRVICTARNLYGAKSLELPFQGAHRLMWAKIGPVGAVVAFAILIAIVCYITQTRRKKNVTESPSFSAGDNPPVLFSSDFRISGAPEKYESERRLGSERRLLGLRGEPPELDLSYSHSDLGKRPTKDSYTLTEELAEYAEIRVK
From the text: (§1) To identify the ligand for Siglec 15, a Siglec 15-Fc fusion protein was generated by fusing the extracellular domain of each molecule with a mouse or human Fc tag (Dong H, et al., Nat Med. 1999; 5(12): 1365-9) and screened in the newly established genome scale human receptor array (Yao, S et al., Immunity 2011, 34(5):729-40). Briefly, the complete human membrane gene library containing over 6,200 genes was collected, maintained, and diluted by OPTI-MEM media and placed individually into four 1,536-well plates at 40 ng/well, through a robotic system. Lipofectamine 2000 was added to each well and mixed with plasmids for 30 minutes. Two thousand HEK293T cells were added subsequently to each well to perform transient transfection. Eight hours after transfection, 10 ng of human Siglec 15-Fc and anti-Fc FMAT blue secondary antibody were added to each well. The plates were read 24 hours after transfection using the Applied Biosystems 8200 cellular detection system and analyzed using the CDS 8200 software. Human Fc Receptor genes served as internal positive controls for the assay.

[2] = target: T2, human leucine rich repeat containing 4C (LRRC4C) (human, UniProt Q9HCJ2 45-640); experiment: as above
T2 construct: also called human LRRC4; NGL1
T2 sequence: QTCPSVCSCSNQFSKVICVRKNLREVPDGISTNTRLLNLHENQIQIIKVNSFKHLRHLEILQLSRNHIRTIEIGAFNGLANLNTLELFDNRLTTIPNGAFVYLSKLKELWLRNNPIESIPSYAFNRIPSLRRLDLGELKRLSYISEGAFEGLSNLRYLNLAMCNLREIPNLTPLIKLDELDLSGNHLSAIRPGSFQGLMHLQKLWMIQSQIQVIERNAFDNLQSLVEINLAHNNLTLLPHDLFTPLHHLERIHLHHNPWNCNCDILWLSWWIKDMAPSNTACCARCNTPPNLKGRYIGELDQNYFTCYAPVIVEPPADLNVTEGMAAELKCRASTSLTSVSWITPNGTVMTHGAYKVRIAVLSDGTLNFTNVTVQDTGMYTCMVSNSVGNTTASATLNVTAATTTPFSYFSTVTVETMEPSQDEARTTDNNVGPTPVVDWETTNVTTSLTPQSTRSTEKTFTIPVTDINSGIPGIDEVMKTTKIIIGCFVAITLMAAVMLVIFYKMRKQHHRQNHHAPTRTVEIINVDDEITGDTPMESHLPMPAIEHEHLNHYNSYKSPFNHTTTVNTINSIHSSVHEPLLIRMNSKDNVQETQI
From the text: as §1

MAG (species not stated) = target: T3, MAG (species not stated) (Homo sapiens (Human), UniProt P20916 20-626, limits assumed); experiment: binding of Siglec 15 point mutant, FIG. 7
T3 construct: also called myelin-associated glycoprotein
T3 sequence: T1 sequence

[3] = target: T4, LRRC4C (species not stated) (Homo sapiens (Human), UniProt Q9HCJ2 45-640, limits assumed); experiment: binding of Siglec 15 point mutant, FIG. 7
T4 construct: also called leucine rich repeat containing 4C
T4 sequence: T2 sequence

B1: human Siglec 15-Fc fusion protein (Fc fusion)
chain: FVRTKIDTTENLLNTEVHSSPAQRWSMQVPPEVSAEAGDAAVLPCTFTHPHRHYDGPLTAIWRAGEPYAGPQVFRCAAARGSELCQTALSLHGRFRLLGNPRRNDLSLRVERLALADDRRYFCRVEFAGDVHDRYESRHGVRLHVTAAPRIVNISVLPSPAHAFRALCTAEGEPPPALAWSGPALGNSLAAVRSPREGHGHLVTAELPALTHDGRYTCTAANSLGRSEASVYLFRFHGASGAST
notes: not shown: mouse or human Fc tag
[1]
  binding result: binds
[2]
  binding result: binds

B2: Siglec 15 R143A mutant (other)
chain: B1 chain with R124A
notes: also called R143A mutation
MAG (species not stated)
  binding result: no binding
[3]
  binding result: no binding
